Laboratory results: paper PMC3229523, “Identification of Lactoferricin B Intracellular Targets Using an Escherichia coli Proteome Chip” (PLoS ONE, 2011)
Ends that are not written are not given here. * marks the point of attachment. Biotin = O=C1N[C@H]2[C@H](CS[C@H]2CCCCC(=O)*)N1

Legend:
Experiment in all cases: peptide or protein array; E. coli proteome chip: purified His-tagged proteins printed in duplicate on Fullmoon slides, blocked with 1% BSA; 10 nM N-terminal biotinylated LfcinB with 1% BSA, room temperature, 1 h; detected with DyLight 649-labeled streptavidin, ratio to DyLight 549-labeled anti-His antibody; ProCAT normalisation, local cut-off; triplicate chips
Conditions in all cases: both partners purified
RplN = RplN (E. coli K-12, UniProt P0ADY3 1-123)
YjfW = molecular target: T1, YjfW (E. coli K-12, UniProt P39305 1-284)
T1 construct: YjfW, E. coli K-12
T1 sequence (looked up): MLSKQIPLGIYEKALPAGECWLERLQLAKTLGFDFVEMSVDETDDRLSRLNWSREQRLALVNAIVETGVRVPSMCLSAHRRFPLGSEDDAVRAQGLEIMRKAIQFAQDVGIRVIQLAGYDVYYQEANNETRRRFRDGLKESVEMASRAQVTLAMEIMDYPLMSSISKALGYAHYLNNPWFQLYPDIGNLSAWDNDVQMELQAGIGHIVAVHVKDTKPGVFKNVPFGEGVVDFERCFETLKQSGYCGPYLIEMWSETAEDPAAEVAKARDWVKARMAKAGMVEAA

YjeS = molecular target: T2, YjeS (E. coli K-12, UniProt P39288 1-379)
T2 construct: YjeS, E. coli K-12
T2 sequence (looked up): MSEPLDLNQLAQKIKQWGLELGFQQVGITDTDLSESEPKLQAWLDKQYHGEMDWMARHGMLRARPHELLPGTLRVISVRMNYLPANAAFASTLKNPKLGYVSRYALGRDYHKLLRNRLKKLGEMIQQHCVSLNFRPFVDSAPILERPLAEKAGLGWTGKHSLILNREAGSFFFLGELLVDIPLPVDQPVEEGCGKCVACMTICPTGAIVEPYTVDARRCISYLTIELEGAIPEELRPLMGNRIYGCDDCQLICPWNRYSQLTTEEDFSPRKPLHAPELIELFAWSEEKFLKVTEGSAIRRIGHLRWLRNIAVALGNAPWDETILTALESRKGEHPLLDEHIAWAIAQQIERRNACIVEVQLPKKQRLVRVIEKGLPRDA

YchA = molecular target: T3, YchA (E. coli K-12, UniProt P0AGM5 1-269)
T3 construct: YchA, E. coli K-12
T3 sequence (looked up): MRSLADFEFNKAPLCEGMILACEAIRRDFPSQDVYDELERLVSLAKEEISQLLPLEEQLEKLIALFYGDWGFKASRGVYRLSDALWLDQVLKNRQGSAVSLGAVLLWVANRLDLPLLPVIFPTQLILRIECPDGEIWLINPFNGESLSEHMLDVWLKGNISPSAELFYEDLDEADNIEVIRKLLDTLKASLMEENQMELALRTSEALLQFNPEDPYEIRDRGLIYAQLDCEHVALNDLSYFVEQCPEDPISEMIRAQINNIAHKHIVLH

YjdI = molecular target: T4, YjdI (E. coli K-12, UniProt P0AF59 1-76)
T4 construct: YjdI, E. coli K-12
T4 sequence (looked up): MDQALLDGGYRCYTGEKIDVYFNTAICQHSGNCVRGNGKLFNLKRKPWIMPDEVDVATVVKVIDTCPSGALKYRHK

YfbR = molecular target: T5, YfbR (E. coli K-12, UniProt P76491 1-199)
T5 construct: YfbR, E. coli K-12
T5 sequence (looked up): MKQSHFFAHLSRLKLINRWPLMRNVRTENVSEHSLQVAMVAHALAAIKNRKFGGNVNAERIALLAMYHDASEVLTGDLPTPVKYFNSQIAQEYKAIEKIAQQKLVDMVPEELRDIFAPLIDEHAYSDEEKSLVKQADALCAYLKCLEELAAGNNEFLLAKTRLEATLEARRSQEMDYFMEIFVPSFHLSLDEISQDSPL

CaiA = molecular target: T6, CaiA (E. coli K-12, UniProt P60584 1-380)
T6 construct: CaiA, E. coli K-12
T6 sequence (looked up): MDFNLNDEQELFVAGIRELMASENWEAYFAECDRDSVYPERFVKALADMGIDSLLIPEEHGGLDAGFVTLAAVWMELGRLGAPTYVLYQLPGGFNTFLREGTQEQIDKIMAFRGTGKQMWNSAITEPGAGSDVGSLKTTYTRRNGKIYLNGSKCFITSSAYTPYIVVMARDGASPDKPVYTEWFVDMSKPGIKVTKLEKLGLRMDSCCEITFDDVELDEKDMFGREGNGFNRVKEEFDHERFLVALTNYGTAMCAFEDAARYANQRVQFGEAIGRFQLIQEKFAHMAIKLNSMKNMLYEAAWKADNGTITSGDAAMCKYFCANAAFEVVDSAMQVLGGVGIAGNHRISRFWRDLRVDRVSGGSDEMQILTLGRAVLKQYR

Measured: binding result

B1: N-terminal biotinylated Lactoferricin B (peptide, UniProt P24627 36-60, looked up)
peptide: Biotin-FKCRRWQWRMKKLGAPSITCVRRAF
modifications: ends and bridges not checked
notes: lactoferricin B (LfcinB), cationic antimicrobial peptide of 25 amino acids; also called biotinylated LfcinB; biotin-labeled LfcinB; source: bought: Kelowna Inc
binds: RplN | YjfW | YjeS | YchA | YjdI | YfbR | CaiA
